# Positions of bridges follow the written chain, without caps; N, C: chain ends. No end group written: not given here.
# Target: tPA (Homo sapiens, UniProt P00750)
# Test: 15-amino acid segment bound to a chromatographic support: tPA binding
# Conditions: initial studies
# Source text: As noted above, almost all of the variegation in amino acid positions used in building the CMTI library occurred between two cyteines at positions 3 and 10 of CMTI-I (see Table 3). In the parental CMTI protein, these cysteines form disulfide bonds with other cysteine residues elsewhere in the protein (see SEQ ID NO: 1), however with the successful isolation of affinity ligands from the CMTI library, a secondary library was conceptualized which was based on variegating a truncated 15-amino acid segment of the isolate #109 (see amino acids 1–15 of SEQ ID NO: 12). If the C3 and C10 cysteines of these members formed a disulfide bond, then a constrained loop having tPA binding properties might be obtained.
# tPA, sequence (P00750 36-562): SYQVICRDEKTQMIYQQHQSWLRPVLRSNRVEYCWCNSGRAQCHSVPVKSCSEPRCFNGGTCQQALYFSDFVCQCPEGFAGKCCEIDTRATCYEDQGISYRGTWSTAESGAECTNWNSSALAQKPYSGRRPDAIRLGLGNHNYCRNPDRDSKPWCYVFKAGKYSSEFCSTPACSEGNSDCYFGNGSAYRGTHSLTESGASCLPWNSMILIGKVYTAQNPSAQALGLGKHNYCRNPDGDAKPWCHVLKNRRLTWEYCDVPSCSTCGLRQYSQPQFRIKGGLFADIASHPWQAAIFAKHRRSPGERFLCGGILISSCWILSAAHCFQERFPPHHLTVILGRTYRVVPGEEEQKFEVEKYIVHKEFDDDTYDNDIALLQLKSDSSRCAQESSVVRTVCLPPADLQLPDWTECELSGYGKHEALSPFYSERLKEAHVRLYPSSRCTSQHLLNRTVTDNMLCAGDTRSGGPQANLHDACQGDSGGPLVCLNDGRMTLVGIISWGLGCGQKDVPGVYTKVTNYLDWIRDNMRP
substance,measurement,value
"15-amino acid segment derived from affinity ligand isolate #109: truncated 15-amino acid segment of isolate #109 (amino acids 1–15 of SEQ ID NO: 12), C3–C10 disulfide loop (RLCPKTDLGCMKDSD; disulfide 3-10)",binding of the immobilized C3–C10 loop to tPA,bound to tPA
